The target of this assay is T1, Vps4^E233Q-3xHA (ATP hydrolysis deficient substrate trap mutant) (S. japonicus, UniProt B6K5C2 1-436, E233Q).
T1 sequence (looked up): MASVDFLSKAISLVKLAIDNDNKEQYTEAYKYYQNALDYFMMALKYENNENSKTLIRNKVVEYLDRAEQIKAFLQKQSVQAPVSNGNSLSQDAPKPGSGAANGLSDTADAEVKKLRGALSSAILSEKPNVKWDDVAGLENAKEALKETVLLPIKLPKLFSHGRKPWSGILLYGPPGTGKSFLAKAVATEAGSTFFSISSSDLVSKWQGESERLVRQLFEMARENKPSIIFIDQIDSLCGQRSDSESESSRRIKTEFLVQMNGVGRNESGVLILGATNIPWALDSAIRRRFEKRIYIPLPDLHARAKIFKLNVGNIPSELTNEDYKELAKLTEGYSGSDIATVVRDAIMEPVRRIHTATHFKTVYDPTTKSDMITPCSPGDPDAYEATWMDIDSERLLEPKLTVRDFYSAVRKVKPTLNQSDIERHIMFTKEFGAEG
The assay can be described thus: pull-down.

B1: GST-Did4 (natural protein, S. japonicus, UniProt B6K6Y8 1-208, looked up)
chain: MGMFDWIFGKQRSPAEVMRAHQRQLNRAERELDREQLKLDQREKGLIREIKANAKAGNVGAARVQARDLMRLRNSRKRMQNTKTQLQAIGLRLTTVRSSDQMMSSMRSATTLLTRMNRSANLPALTRITQQFERENDMMEQRQDMIDEQFEEGLEDEDEEEADELVDQVLDEIGVSLSQDLPSAAQANTTKADTISSGLNLEDLAHIR
For the molecule B1, the binding result was “binds”.
